# Data published in the nanobody polyreactivity screen of Harvey et al. (2022).
# Test: yeast display, Sf9 membrane polyspecificity reagent, FACS + sequencing; frameworks hold sequencing errors
# Procedure, shortened: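 Sorting gates, low and high (top ~1%), were placed on anti-HA fluorescence to track expression and on streptavidin fluorescence to track reagent binding. A clone's polyreactivity label is taken from the gate it came out of. The reagent was 10% biotinylated, detergent-solubilized Sf9 membrane, applied for 1 hour at 4 °C to galactose-induced yeast display cells.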
row,Sequence,polyreactivity (PSR sort gate)
1,QVQHVESGGGLVQAGGSLRLSCAASGRILKPNAMGWYRPAPGKERELVAAIRWRGDITYYADSVKGRFTISRDNAKNTVYLQMNSLKPEDTAVYYCNARTYYRRQKYDYWGQGTKVTVSS,high polyreactivity
2,QVQHVESGGGLVQAGGSLRLSCAASGRISLSNAMGWYRQAPGKEREFVAAITKRSDRTYYADSVKGRFTISRDNAKNTVYLQMNSLKPEDTAVYYCAAKPLFGTRDDYWGLGTQVTVSS,low polyreactivity
3,QVQHVESGGGLVQAGGSLRLSCAASGRTFARYTMGWYRQAPGKERELVAVISRSGGSTYYADSVKGRFTISRDNAKNSVYLQMNSVKPEDTAVYYCAAGDFVVSTLEYYYWGQGTQVTVSS,high polyreactivity
4,QVQHVESGGGLVQAGGSLRLSCAASGRTFDWYAMGRYRQAPGKEMELVAAISSGGSTYYADSVKGRFTISRDNAKNTVYLQMNSLKPEDTAVYYCAAEWHYIYAYDYWGQGTQVTVSS,low polyreactivity
5,QVQHVESGGGLVQAGGSLRLSCAASGRTFKGYAMGWYRQAPGKESQLVAGISTGGNTNYADSVMGRFTISRDNAKNTVYLQMNSLKPEDTAVYYCNAVYRGFTHYTGYEYWGQGTQVTVSS,high polyreactivity
6,QVQHVESGGGLVQAGGSLRLSCAASGRTFQWYTLGWYRQAPGKERELVAAISWSGTSTYYADSVKGRFTISRDNEKNTVYLLMNSLKPEDTAVYYCAAKTYPSLFFHYGYWGQGTQVTVSS,low polyreactivity
7,QVQHVESGGGLVQAGGSLRLSCAASGRTFRSYAMGWYRQAPGKEREFVATITRRGGSTYYADSVKGRFTISRDNAKNTVYLQMNSLKPEDTAVYYCNAVVSSQEYDYWGQGTQVTVSS,high polyreactivity
8,QVQHVESGGGLVQAGGSLRLSCAASGRTFRYNAMGWSRQAPGKERELVAAISSGDRTNYADSVKGRFTISRDNAKYTVYLQMYSLKPEDTAVYYCAAQTDSYYDFDYWGQGTQVTVSS,low polyreactivity
9,QVQHVESGGGLVQAGGSLRLSCAASGRTFTRYTMGWYRQAPGKERELVAAIRFSGGSTYYADSVKGRFTISRDNAKNTVYLQMNSLKPEDTAVYYCAATGGWYKHWFDYWGQGTQVTVSS,low polyreactivity
10,QVQHVESGGGLVQAGGSLRLSCAASGRTFYRNAMGWYRPAPGKERELVAAISWSGGRTFYADSVKGRFTISRDNAKNTVYLQMNSLKPEDTAVYYCAKTYTTPGYYRYDYWGKGTQVTVSS,high polyreactivity
11,QVQHVESGGGLVQAGGSLRLSCAASGSIFGKYAMGWYRQAPGKERELVARISRSSGSTYYADSVKGRFTISRDNAKNTVYLQMNSLKPEDTAVYYCAARAYLNQARPKYGYSYDYWGQGTQVTVSS,high polyreactivity
12,QVQHVESGGGLVQAGGSLRLSCAASGSIFGTYAIGWYRQAPGKERELVATISYGDGSTYYADSVKGRFTISRDNAKNTVYLEMNSLKPEDTAVYYCNTGVYSSGGPLDYWGQGTQVTVSS,low polyreactivity
13,QVQHVESGGGLVQAGGSLRLSCAASGSIFNRNAMGWYRQAPGKERELVAAITRRGGSTYYADSVKVRFTISRDNAMNTVYLQMNSLKPEDTAVYYCAAATRKTEYDYWGQGSQVTVSS,high polyreactivity
14,QVQHVESGGGLVQAGGSLRLSCAASGSIFPLNAMGWSRQAPGQVSELVASISTGSSTYYADSVKGRFTISRDNAKNTVYLQMISLKPEDTAVYFCAVDRVLFSDFNRGYEYNYWGQGTQVTVSS,low polyreactivity
15,QVQHVESGGGLVQAGGSLRLSCAASGSIFPVYAMRWYRQAPGKEREFVASIRWRGGSTSYADSVKGRFTISRDNAKNTVYLQMNSLKPEDTAVYYCNAVYYSWAQSARFDYWGQGTQVTVSS,low polyreactivity
16,QVQHVESGGGLVQAGGSLRLSCAASGSIFSYYAMGWYRQPPGKERELVATISSGDSTYYADSVKGRFTISRDNAKKTVYLQMNSLKPEDTAVYYCARKPRIRYYPAPYDYWGQGTQVTVSS,low polyreactivity
17,QVQHVESGGGLVQAGGSLRLSCAASGSIIPSNVMGWYRQATGKEREFVAGITFRVGSTYYADSVKGRFTISLDNAKNTVYLQMNSLKPEDTAVYYCAALIRAVDRYTYRYGYWGQGTQVTVSS,high polyreactivity
18,QVQHVESGGGLVQAGGSLRLSCAASGSTFGPNAMGWYRQAPGKERELVAAINTRGGSTYYADSVKGRFTISRDNAKNTVYLQMNSLKPEDTAVYYCAAEYVVWYLDRFNYWGQGTQVTVSS,high polyreactivity
19,QVQHVESGGGLVQAGGSLRLSCAASGSTFHDYAMAWYRQATGKEREFVAAIRWRGGSTYYADSVKGRFTISRDNAKNTVYLQMNSLKPEDTAVYYCAADYLQFRKYVVHFDYLGQGTQVTVSS,low polyreactivity
20,QVQHVESGGGLVQAGGSLRLSCAASGSTFWNKAMGWYRQAPGKEREFVAAITRSTTSTYYADSVKGRFTISRDNAKNTVYLQMNSLKPEDTAVYFCAADTDIVLYDYWGQGTQVTVSS,low polyreactivity
21,QVQHVESGGGLVQAGGSLRLSCAASGSTFYGNAMGWYRQAPGKEREFVASINSRGGITYYADSVKGRFTISRDNAKNTVYLQMNSLKPEDTAVYYCNTRVLSFYHYPYDYWGQGTQVTVSS,high polyreactivity
22,QVQHVESGGGLVQAGGSLRLSCAASGSTFYINAKGWYRQAPGKEREFVASISWRGGSTYADSVKGRFTISRDNAKNTVYLQMNSLKPEDTAVYFCAAEFDVYSHHWITSYDYWGQGTQVTVSS,high polyreactivity

row,Sequence,polyreactivity (PSR sort gate)
1,QVQHVESGGGLVQAGGSLRLSCAASGSTIYHYAMGWSRPAHGKERELVAAITTIGGRTYYADSVKGRFTISRDNAKNTVYLQMNSLKPEDTAVYYCAAGYRAWEPYGHYGYWGQGTQVTVSS,high polyreactivity
2,QVQHVESGGGLVQAGGSLRLSCAASGSTYNGYAMGWYRQATGKERELVAAISTSGGSTYYADSVKGRFTISRDNAKNTVYLQMNSLKPEDTAVYYCATYYGKRYMRRVDYWGQGTQVTVSS,high polyreactivity
3,QVQHVESGGGLVQAGGSLRLSCAASGYNFPYNPMGWYRQATGKEREFVAASTSSGGSTYYADSVKGRFTISRDNAKNTVYLQMNSLKPEDTAVYYCARVPLHRYGYWGQGTQVNVSS,high polyreactivity
4,QVQHVESGGGLVQAGGSLRLSCAASRLTFTRNAMGWYRQAPGKERELVAAITRSSGSTYYADSVKGRFTISRDNAKNTVYLQMNSLKPEDTAVYYCNARRAAYYHRARELDYWGQGTQVTVSS,high polyreactivity
5,QVQHVESGGGLVQAGGSLRLSCAATGRIFTAYYAMGWYRQAPGKERELVASISSSGTSTYADSVKGRFTISRDNAKNTVYLQMNSLKPDDTAVYYCATRKLRTRRYDYGYWGQGTQVTVSS,low polyreactivity
6,QVQHVESGGGLVQAGGSLRLSCAPSGITFYTYTMGWYRQAHGKERQLVAVISASGARTYYADSVKGRFTISRDNAKNTVYLQMNSLKPEDTAVYYCAARSYFISPWRFDYWGQGTQVTVSS,high polyreactivity
7,QVQHVESGGGLVQAGGSLRLSCDASGSTFPYYTMGWYRQAPGKERELVAAITWRGGRTYYADSVKGRFTISRDNAKNTVYLQMNSLKPEDTAVYYCATGYSYRGYSALSGYDYWGQGTQVTVSS,high polyreactivity
8,QVQHVESGGGLVQAGGSLRLSCPASGIIFDYYAMGWYRQAPGKERELVATITSGGSTNYADSVKGRFTISRDNAKNTVYLQMNSLKPEDTAVYYCAARTYWFPDIYPGLGMDYWGQGTQVTVSS,low polyreactivity
9,QVQHVESGGGLVQAGGSLRLSSAASGFTFYGYAMGWYRPARGNERELVATIRRSTGSTYYADSVKGRFTISRDNAKYSVYLQMNSLKPDDTAVYYCATRVWFPITSYDYWGQGTQVTVSS,low polyreactivity
10,QVQHVESGGGLVQAGGSLRLSSAASGRIFPINAMGWYRQAPGKERELVAAISYSGGSTYYADSVKGRFTISRDNAKNTVYLQMNSLKPEDTAVFYCNARYPYSYYHRYYYWGQGTQVTVSS,high polyreactivity
11,QVQHVESGGGLVQAGGSNRLSCASSGSTFPGNAMGWYRQAPGKERELVARINDGADTNYADSVKGRFTISRDNAKNTVFLQMNSLKPEDTAVYYCAKPFYDGRTHFVSWGQGTQVTVSS,low polyreactivity
12,QVQHVESGGGLVQAGGSRRLSCAASGRTFREYAMGWYRQAPGKERELVAAISDSGDSTYYADSVKGRFTISRDNAKNTVNLQMNSLKPVHTAVYYCAADYYDYEYDYWGQGTQVTVSS,low polyreactivity
13,QVQHVESGGGLVQAGGTLRLSCASSGRTLYYYTMGWYRQAPGKESELVAAISKSGGSTYYADSVKGRFTISRDNAKNTVYLQMNSLKPEDTAVFYCAADRSAYSRGYVRYIYWGQGTKVTVSS,high polyreactivity
14,QVQHVESGGGLVQAGRSLRLSCAASGFIFRYSAMGWYRPAPGKERELVATITGRGGSTYYADSVKGRFTISRDNAKNTVYLQMNSLIPEDTAVYYCAARARYSPAPYDYWGQGTQVTVSS,high polyreactivity
15,QVQHVESGGGLVQARGSLRLSCAASGLTFNTYAMGWYRQAPGQDRELVAAISRRGSRTYYADSVKGRFTISRDNAKNTVYLQMNSLNREDTAVYYCAAPRASGYYWGQGTQVTVSS,high polyreactivity
16,QVQHVESGGGLVQAVVSLRLSCAATGRIISYNAMGWYRQAPGKEWELVAAISWVGGSTYYADSVKGRFTISRDIAKNTVYLQMNCLKPEDTAVYYCAKGWYRIKRNDYWGQGTQVTVSS,low polyreactivity
17,QVQHVESGGGLVQPGGSHRLSCAASGSTFQIYAMRWYRQAPGKVRELVAAITSSSSTNYADSVKGRFTISRDNAKNTDYLQMNSLKPEDPAVYYCAADVSRRCNWYDYWGQGTQVTVSS,low polyreactivity
18,QVQHVESGGRLVQAGGSLRLSCAASGFIFPNYAMGWYRQAPGKERELVAVISRSGGSTYYADSVKGRFTISRDNAKNTVYLQMNSLKPEDTAVYYCNAVARGYGYDYWGQGTQVTVSS,high polyreactivity
19,QVQHVESGGRLVQAGGSLRLSCAPSGFIFSKYAMGWYRQAPGKERELVAAITRSGGRTYYADSVKGRFTISRDNAKNTVYLQMNSLKPEDTAVYYCAASWLYFGRDYWGQGTQVTVSS,high polyreactivity
20,QVQHVESGGRLVQAGGSLRLSWAASGRIFRVNAMGRYRQAPGKERELVAAINFSGTSTYFADSVKGRFTISRDNAKNTVYLQMNSLKPDDTAVYYCNALTTSNSGRFYYWGQGTQVTVSS,low polyreactivity
21,QVQHVESGGVLVQAGGSLRLSCAASGSIFYPNAMGWYRQAPGKERELVAAISSSGGTNYADSVKGRFTISRDNAKNTVYLQMNSLKPEDTAVYYCNARDKVRYRFSRMDYWGQGTQVTVSS,low polyreactivity
